Data set [1] deals with FcγRIIA (UniProt P12318). The data set is described as follows: cell-based or functional assay.
For data set [2], the target named is FcγRIIA (UniProt P12318).
Data set [3] deals with γ chain (γ subunit of FcγRI and FcγRIIIA). The data set is described as follows: cell-based or functional assay.
Data set [4] relates to J32/FcγRIIA and J32-3.2/FcγRIIA T-cell transfectants. The data set is described as follows: inhibition of sEA phagocytosis in FcγRIIA T-cell transfectants. The format is cell-based. As to conditions: preincubation of the cells in 10 μg/ml. The method, then: The ability of these T-cell transfectants to phagocytose IgG-sensitized cells was assessed by incubation with IgG coated sheep erythrocytes (sEA). In both the wild type J32 and mutant J32-3.2 transfectants, a number of the cells were able to phagocytose the sEA (FIG. 12).
Considering that 70%-100% of the cells are expressing FcγRIIA in these transfectants, and presumably are mediating phagocytosis through this receptor, the levels of phagocytosis observed are relatively low when compared, for example, to COS-1 fibroblasts transfected with FcγRIIA (Indik et al, J. Clin. Invest. 88:1766 (1991)). […] Also phagocytosis was inhibited when the transfectants were incubated with sEA at 0° C. instead of 37° C.

The subject of the next data set is COS-1 cells. The data set is described as follows: phagocytosis of IgG-coated cells (EA) by FcγRIIIA-transfected COS-1 cells, electron microscopy. The format is cell-based. Particulars: COS-1 transfectants. The source says: A FcγRIIIA encoding sequence was transfected into COS-1 cells to study its phagocytic function, determined by electron microscopy, in the absence of other Fc receptors. […] To delineate the region of the γ chain important in phagocytosis, two deletion mutants, were constructed, deleting the C-terminal 7 amino acids or deleting the C-terminal 22 amino acids which have a tyrosine containing conserved motif, Y-X2-L-X7-Y-X2-L (SEQ ID NO:10), present in several Ig gene super family receptors. […] The role of the conserved cytoplasmic tyrosines was then examined.
Further, single chain Fcγ receptor chimeras, consisting of the γ cytoplasmic domain and the a extracellular domain with the transmembrane domain of either FcγRIIIA-γ or FcγRI were able to mediate a phagocytic signal. However, single chain chimeras were not sufficient for full phagocytic activity.

In data set [5] the test system is murine macrophages (P388D1). The data set is described as follows: phagocytosis by WT FcγRI transfected into murine macrophages. Type of data set: cell-based. The method, then: Wild type (WT) and a mutant (MT) FcγRI, engineered to omit the cytoplasmic domain (CYT), were transfected into COS cells and murine macrophages (P388D1). The phagocytic potential of the transformed cells was assessed using IgG-coated RBCs (EA) and RBCs conjugated with Fab anti-human FcγR1 mAb (E-mAb). […] However, both WT and MT FcγRI induced phagocytosis in P388D1. Phagocytosis by WT FcγRI was inhibited by the tyrosine kinase inhibitor tyrphostin 23. Furthermore, activation of FcγRI on monocytes with Fab anti-FcγRI induced tyrosine phosphorylation of FcγRII, determined by anti-phosphotyrosine immunoblots. FcγR1 thus mediates a Ca^2+ signal through its cytoplasmic domain but not phagocytosis. FcγRI induced phagocytosis therefore requires elements, present in macrophages but absent in COS cells, that permit transmembrane communication.

The next data set concerns FcγRII. Particulars: cited from earlier work.
For data set [6], the system named is splenic macrophage Fcγ receptors. Particulars: in vivo; cited from earlier work.
The subject of another data set is FcγR2. The data set is described as follows: FACS analysis of splenic macrophage Fcγ receptor expression with monoclonal antibodies. Type of data set: in vivo, guinea pig. Here is the method:
(§1) Human recombinant macrophage colony stimulating factor (hrM-CSF) was studied in vivo using an established model in the guinea pig (Schreiber et al, J. Clin. Invest. 51:575 (1972)). Adult male guinea pigs were treated for 5 days with hrM-CSF (500 μg/kg) and splenic macrophage FcγR function and protein expression were assessed by i) the splenic macrophage clearance of IgG sensitized ^51Cr-guinea pig RBC (EA), ii) the in vitro binding of EA by isolated splenic macrophage, and iii) FACS analysis using monoclonal antibodies with specificity for the two guinea pig splenic macrophage Fcγ receptors, FcγR1,2 and FcγR2. Treatment with hrM-CSF enchanced the clearance of EA by 72±5%. In addition, a greater proportion of isolated splenic macrophages from hrM-CSF treated animals bound EA in vitro: 80±7% vs 48±4% (sham), p<0.001. In vivo hrM-CSF increased the expression of both splenic macrophages Fcγ receptors: 81±6% and 130±10% for FcγR1,2 and FcγR2, respectively. The lowest effective dose of hrM-CSF was 250 μg/kg, increasing the expression of FcγR1,2 by 26±3% and FcγR2 by 42±4%. […] The effect of hrM-CSF required at least 4 days of treatment.
(In general: Flow cytometry measures light scatter and fluorescence of single cells or particles in a stream.)

The subject of a further data set is FcγR1,2. The data set is described as above. The format is in vivo, guinea pig. The method, then: as §1
Data set [7] concerns IgG sensitized 51Cr-guinea pig RBC (EA). The data set is described as follows: splenic macrophage clearance of IgG sensitized 51Cr-guinea pig RBC (EA), established guinea pig model. The format is in vivo. Here is the method: as §1
In another data set the test system is splenic macrophage. The data set is described as follows: in vitro binding of EA by isolated splenic macrophages from treated animals. As to conditions: animals treated 500 μg/kg for 5 days; sham 48±4%, p<0.001. Type of data set: in vivo, guinea pig. Here is the method: as §1
The test system of another data set is FcγRI and FcγRII. As to conditions: cited from earlier work.

We go through nine molecules from patent publication US6475997B1, “Methods of stimulating phagocytosis” (University of Pennsylvania, priority 1993, dated 2002).

In the data set with FcγRIIA [1], “IgG on IgG-sensitized sheep red blood cells (EA) (antibody)” gave a % phagocytic cells, J32-3.2/FcγRIIA bulk transfectants, experiment 2 of 5%; a % phagocytic cells, J32-3.2/FcγRIIA bulk transfectants, experiment 3 of 13%; a % phagocytic cells, J32-3.2/FcγRIIA bulk transfectants, experiment 4 of 17%; a % phagocytic cells, J32-3.2/FcγRIIA bulk transfectants, experiment 6 of 6%. In the data set with FcγRIIA [1], this molecule gave a % phagocytic cells, J32/FcγRIIA bulk transfectants, experiment 1 of 17%; a % phagocytic cells, J32/FcγRIIA bulk transfectants, experiment 2 of 33%; a % phagocytic cells, J32/FcγRIIA bulk transfectants, experiment 3 of 25%; a % phagocytic cells, J32/FcγRIIA bulk transfectants, experiment 4 of 32%. Besides, in the data set with FcγRIIA [1], the % phagocytic cells, J32/FcγRIIA bulk transfectants, experiment 5 was 31%; the % phagocytic cells, J32/FcγRIIA bulk transfectants, experiment 6 amounted to 14%; the corrected phagocytic index (cP1), J32-3.2/FcγRIIA bulk transfectants, experiment 2 (erythrocytes ingested per 100 cells) worked out at 7; the corrected phagocytic index (cP1), J32-3.2/FcγRIIA bulk transfectants, experiment 3 (erythrocytes ingested per 100 cells) turned out to be 21. In the data set with FcγRIIA [1], this molecule returned a corrected phagocytic index (cP1), J32-3.2/FcγRIIA bulk transfectants, experiment 4 (erythrocytes ingested per 100 cells) of 24; a corrected phagocytic index (cP1), J32-3.2/FcγRIIA bulk transfectants, experiment 6 (erythrocytes ingested per 100 cells) of 9; a percent of cells that phagocytosed EA, FcγRIIA-infected D58 (Src+) cells of 70 percent; a percent of cells that phagocytosed EA, FcγRIIA-infected SAR6 (Src-) cells of 43 percent. Also, in the data set with FcγRIIA [1], the phagocytic index (P1), J32-3.2/FcγRIIA bulk transfectants, experiment 2 (erythrocytes ingested per 100 cells) was 6; the phagocytic index (P1), J32-3.2/FcγRIIA bulk transfectants, experiment 3 (erythrocytes ingested per 100 cells) was found to be 18; the phagocytic index (P1), J32-3.2/FcγRIIA bulk transfectants, experiment 4 (erythrocytes ingested per 100 cells) was found to be 21; the phagocytic index (P1), J32-3.2/FcγRIIA bulk transfectants, experiment 6 (erythrocytes ingested per 100 cells) worked out at 8. In the data set with FcγRIIA [1], this molecule showed a phagocytic index (P1), J32/FcγRIIA bulk transfectants, experiment 1 (erythrocytes ingested per 100 cells) of 28; a phagocytic index (P1), J32/FcγRIIA bulk transfectants, experiment 2 (erythrocytes ingested per 100 cells) of 22; a phagocytic index (P1), J32/FcγRIIA bulk transfectants, experiment 3 (erythrocytes ingested per 100 cells) of 40; a phagocytic index (P1), J32/FcγRIIA bulk transfectants, experiment 4 (erythrocytes ingested per 100 cells) of 53. In the data set with FcγRIIA [1], this molecule displayed a phagocytic index (P1), J32/FcγRIIA bulk transfectants, experiment 5 (erythrocytes ingested per 100 cells) of 51 and a phagocytic index (P1), J32/FcγRIIA bulk transfectants, experiment 6 (erythrocytes ingested per 100 cells) of 21.
In the case of Src, the “in vitro immune complex kinase assay: phosphorylation of FcγRIIA” value with FcγRIIA [2] was “FcγRIIA was phosphorylated by Src in this in vitro assay”.
In the case of Syk (enzyme), in [3], the enhancement of phagocytosis mediated by FcγRI/γ on co-transfection of Syk in COS-1 cells is 8 fold and the enhancement of phagocytosis mediated by FcγRIIIA/γ on co-transfection of Syk in COS-1 cells came out at 6.1 fold.
As for `C=C1[C@@H](C)[C@H]2[C@H](Cc3ccccc3)NC(=O)[C@]23[C@H](OC(C)=O)/C=C/[C@@](C)(O)C(=O)[C@@H](C)C/C=C/[C@H]3[C@@H]1O` [cytochalasin-D], in [4], the “effect on phagocytosis of sEA” value is “abolished phagocytosis”.
Take `N#CC(C#N)=Cc1ccc(O)c(O)c1` [tyrphostin 23]: the “effect on FcγRIIIA phagocytosis” value with COS-1 cells was “reversibly inhibited phagocytosis”. Moreover, in data set [5], the “effect on phagocytosis by WT FcγRI” value was “inhibited”.
As for “GM-CSF: hematopoietic growth factor, granulocyte-macrophage colony-stimulating factor”, the “effect on monocyte FcγRII expression and function” value in the data set with FcγRII is “selectively increase monocyte FcγRII expression and function”.

B1: M-CSF: hematopoietic growth factor, macrophage colony stimulating factor (protein, UniProt P09603 33-554, looked up)
Macrophage colony-stimulating …: EEVSEYCSHMIGSGHLQSLQRLIDSQMETSCQITFEFVDQEQLKDPVCYLKKAFLLVQDIMEDTMRFRDNTPNAIAIVQLQELSLRLKSCFTKDYEEHDKACVRTFYETPLQLLEKVKNVFNETKNLLDKDWNIFSKNCNNSFAECSSQDVVTKPDCNCLYPKAIPSSDPASVSPHQPLAPSMAPVAGLTWEDSEGTEGSSLLPGEQPLHTVDPGSAKQRPPRSTCQSFEPPETPVVKDSTIGGSPQPRPSVGAFNPGMEDILDSAMGTNWVPEEASGEASEIPVPQGTELSPSRPGGGSMQTEPARPSNFLSASSPLPASAKGQQPADVTGTALPRVGPVRPTGQDWNHTPQKTDHPSALLRDPPEPGSPRISSLRPQGLSNPSTLSAQPQLSRSHSSGSVLPLGELEGRRSTRDRRSPAEPEGGPASEGAARPLPRFNSVPLTDTGHERQSEGSFSPQLQESVFHLLVPSVILVLLAVGGLLFYRWRRRSHQEPQRADSPLEQPEGSPLTQDDRQVELPV
B1: in data set [6], the “effect on splenic macrophage Fcγ receptors” value was “increase splenic macrophage Fcγ receptors”.

B2: hrM-CSF: Human recombinant macrophage colony stimulating factor (protein, UniProt P09603 33-554, looked up)
Macrophage colony-stimulating …: B1 Macrophage colony-stimulating …
On to B2, for which, in the data set on FcγR2 (250 μg/kg), the “increase in expression of FcγR2” value was found to be 42±4%. Moreover, the “increase in expression of splenic macrophage FcγR2” value in the data set with FcγR2 (500 μg/kg for 5 days) was 130±10%. In addition, in the data set on FcγR1,2 (250 μg/kg), the “increase in expression of FcγR1,2” value worked out at 26±3%. Besides, the “increase in expression of splenic macrophage FcγR1,2” value in the data set on FcγR1,2 (500 μg/kg for 5 days) is given as 81±6%. Moreover, the “enhancement of the clearance of EA” value in data set [7] (adult male guinea pigs, 500 μg/kg for 5 days) worked out at 72±5%. Also, in data set [7] (guinea pig), the “days of treatment required for the effect” value is given as “at least 4 days” and the lowest effective dose came out at 0.25 mg/kg. The “proportion of isolated splenic macrophages that bound EA in vitro” value in the data set with splenic macrophage stood at 80±7%.

B3: IFN-γ: the cytokine interferon gamma (protein, UniProt P01579 24-161, looked up)
Interferon gamma: QDPYVKEAENLKKYFNAGHSDVADNGTLFLGILKNWKEESDRKIMQSQIVSFYFKLFKNFKDDQSIQKSVETIKEDMNVKFFNSNKKKRDDFEKLTNYSVTDLNVQRKAIHELIQVMAELSPAAKTGKRKRSQMLFRG
In the case of B3, the “effect on levels of FcγRI and FcγRII” value with FcγRI and FcγRII is “modulate the levels of FcγRI and FcγRII”.
